These results are taken from paper PMC10128029.

Common to all, as to test: EMSA
Data set [1] relates to TilS A244T (Burkholderia cenocepacia HI2424). To be noted: unmodified in vitro transcript; EMSA: 3.5 nM 32P-tRNA, 220 nM-39.0 µM TilS, 100 mM Tris-HCl pH 7.8, 5 mM DTT, 10 mM MgCl2, 10 mM KCl, 10% glycerol, 37 C, 30 min; native 10% PAGE.
Data set [2] deals with TilS N274Y (Burkholderia cenocepacia HI2424). To be noted: unmodified in vitro transcript; EMSA: 3.5 nM 32P-tRNA, 220 nM-39.0 µM TilS, 100 mM Tris-HCl pH 7.8, 5 mM DTT, 10 mM MgCl2, 10 mM KCl, 10% glycerol, 37 C, 30 min; native 10% PAGE.
The test system of data set [3] is TilS N445K (Burkholderia cenocepacia HI2424). The note with it: unmodified in vitro transcript; EMSA: 3.5 nM 32P-tRNA, 220 nM-39.0 µM TilS, 100 mM Tris-HCl pH 7.8, 5 mM DTT, 10 mM MgCl2, 10 mM KCl, 10% glycerol, 37 C, 30 min; native 10% PAGE.
The test system of data set [4] is TilS P421L (Burkholderia cenocepacia HI2424). The note with it: unmodified in vitro transcript; EMSA: 3.5 nM 32P-tRNA, 220 nM-39.0 µM TilS, 100 mM Tris-HCl pH 7.8, 5 mM DTT, 10 mM MgCl2, 10 mM KCl, 10% glycerol, 37 C, 30 min; native 10% PAGE.
Data set [5] has as its system TilS WT (Burkholderia cenocepacia HI2424). The note with it: 10 mM Mg2+; unmodified in vitro transcript; EMSA: 3.5 nM 32P-tRNA, 220 nM-39.0 µM TilS, 100 mM Tris-HCl pH 7.8, 5 mM DTT, 10 mM MgCl2, 10 mM KCl, 10% glycerol, 37 C, 30 min; native 10% PAGE.

For the substance tRNAIle2 (CAU), the Kd in data set [1] is 4.6 µM; in data set [2], 3.3 µM; in data set [3], 3.1 µM; in data set [4], 4.5 µM; in data set [5], 2.6 µM.
